# Patent US9243044B2, “Anticoagulant polypeptide and applications thereof” (GUANGDONG MEDICAL COLLEGE, priority 2011, dated 2016)
# “Also recorded” adds a separate entry of the source. Marks after values point to notes of the source that are not given here.
# B1: NAPTin-1 (protein)
# chain: NPSCGENERHDECSRKECDPKCKYDGTEEKDDEKPVVCLTRVCYGDCICRDGFLRNKNGACVKAEDCELD
# modifications: Sequence derived from Ancylostoma caninum or Synthetic
# Key:
# normal human plasma [1] = assay: aPTT assay in normal human plasma; assay type: biochemical; details: for aPTT: normal human plasma; for multiples of prolonging aPTT: ratio of mean aPTT to blank control
# Procedure: (§1) The recombinant anticoagulant polypeptides were expressed in Escherichia coli and purified in our laboratory. Anticoagulant activity was determined by measuring the aPTT and PT.
# For the aPTT assay, 10 μl recombinant protein at various concentrations was mixed with 50 μl fresh normal human plasma, 20 μl aPTT reagent (MDC Hemostasis, Germany) and incubated for 15 mins at 37° C. 20 μl 0.05 mol/L prewarmed CaCl2 was then added to initiate the clotting reaction. The clotting time was measured with the absorbance at 630 nm by using an E1x808 kinetic microtiter reader (BioTek, United States). Each concentration was repeated 3 times. The ratio of the mean aPTT value of each concentration to blank control group is multiples of prolonging the aPTT.
# normal human plasma [2] = assay: PT assay in normal human plasma; assay type: biochemical; details: for PT: normal human plasma
# Procedure: as §1
# For the PT assay, 10 μl recombinant protein at various concentration was mixed with 45 μl normal human plasma and incubated for 15 mins at 37° C. 45 μl prewarmed PT reagent (MDC Hemostasis, Germany) was then added and the clotting time was measured with the absorbance at 630 nm by using an E1x808 kinetic microtiter reader (BioTek, United States). Each concentration was repeated 3 times.
# human fXIa = molecular target: T1, human fXIa (Homo sapiens, UniProt P03951); assay: Chromogenic assay, fXIa; assay type: biochemical
# T1 construct: Human coagulation factors IIa (thrombin), Xa, XIa, XIIa, EGR-fXa; purchased Haematologic Technologies Inc (United States)
# Description: (§2) The recombinant anticoagulant polypeptides in the present invention were expressed in E. coli and purified in our laboratory, of which the activities against coagulation factors were investigated by chromogenic assays. Human coagulation factors IIa (thrombin), Xa, XIa, XIIa, EGR-fXa were products of Haematologic Technologies Inc (United States). Recombinant fVIIa was products of Novo-Nordisk (Denmark). Recombinant soluble tissue factor (sTF) was purchased from Protgen (Beijing, China). The following chromogenic substrates were used for these coagulation factor assays: S2765 for human fXa, S2288 for human fVIIa and fIIa, 52366 for human fXIa and fXIIa, respectively.
# (§3) The chromogenic assays were carried out in a total reaction volume of 100 μl in individual wells of a 96-well microtiter plate. 50 μl fIIa, fXa, fXIa, or fXIIa (final concentration: 1 nM) was incubated with 10 μl recombinant anticoagulant polypeptide at various concentrations (or PBS control group) Assays for the detection activity of fVIIa: 50 μl fVIIa+TF (1 μM) and EGR-fXa (final concentration 500 nM) was incubated for 15 mins at 25° C., respectively. After the addition of 40 μl of prewarmed chromogenic substrate to a final concentration of 400 μM, the changes of absorbance at 405 nm were monitored by using an E1x808 kinetic microtiter reader. The data were used to calculate the velocities of response.
# human fIIa (thrombin) = molecular target: T2, human fIIa (thrombin) (Homo sapiens, UniProt P00734); assay: Chromogenic assay, fIIa (thrombin); assay type: biochemical
# T2 construct: Human coagulation factors IIa (thrombin), Xa, XIa, XIIa, EGR-fXa; purchased Haematologic Technologies Inc (United States)
# Description: as §2, §3
# human fXa = molecular target: T3, human fXa (Homo sapiens, UniProt P00742); assay: Chromogenic assay, fXa; assay type: biochemical
# T3 construct: Human coagulation factors IIa (thrombin), Xa, XIa, XIIa, EGR-fXa; purchased Haematologic Technologies Inc (United States)
# Description: as §2, §3
# fVIIa/TF = molecular target: T4, fVIIa/TF (Homo sapiens, UniProt P08709); assay: Chromogenic assay, fVIIa/TF; assay type: biochemical
# T4 construct: Recombinant fVIIa was products of Novo-Nordisk (Denmark); purchased Novo-Nordisk (Denmark) for fVIIa; Protgen (Beijing, China) for sTF; Haematologic Technologies Inc for EGR-fXa
# Description: as §2, §3
# BALb/c mice = assay: Mouse tail bleeding time; assay type: in vivo; details: tail transected after 10 min
# Procedure: After 10 min, the distal tip 1.5 mm of the mouse tail was transected and the blood oozed was soaked with filter paper very 30 seconds until the bleeding stops. The bleeding time was defined as the time elapsed from the tail transection to the stoppage of bleeding.
# SD rats [3] = assay: Rat arterio-venous shunt thrombus formation model; assay type: in vivo
# Procedure: 50 SPF grade male SD rats (provided by the laboratory animal center of Guangdong Medical College, 300-350 g body weight) were randomly divided into saline control group, positive control group (100 U·kg^−1 heparin sodium, Shanghai No. 1 Biochemical & Pharmaceutical Co. Ltd), and rNAPT-1 low dose (100 μg·kg^−1), middle dose (1 mg·kg^−1), high dose group (5 mg·kg^−1), 10 rats each group, respectively. These rats were anaesthetized with 10% chloral hydrate (250 mg/kg) by intraperitoneal injection. The right common carotid artery and left external jugular vein was exposed and dissected bluntly from the surrounding tissue after a surgical incision. One end of a polyethylene pipe (1.5 mm of diameter, 22 cm of length) with a 5 cm length of No. 4 operation suture in it and filled with 50 U/mL heparin solution was inserted into the right common carotid artery, and the other end was inserted into the left external […] vein. 5 min after tail intravenous injection of drugs, the artery clamp was opened, and blood flow from the right common carotid artery to the left external jugular vein through the polyethylene pipe. After 15 min of blood flow, the suture line was quickly removed and weighed. The net weight of thrombus is total weight minus suture weight; inhibition rate=(wet weight of thrombus of saline control group−wet weight of thrombus of administration group)/wet weight of thrombus of saline control group×100%.
# SD rats [4] = assay: Rat inferior vena cava (venous) thrombosis; assay type: in vivo; details: for Thrombosis rate: rats with thrombus / rats, 4 hours after ligation
# Procedure: 40 SPF grade male SD rats (provided by the laboratory animal center of Guangdong Medical College, 300-350 g body weight) were randomly divided into saline group, and rNAPTin-1 low-dose (100 μg·kg^−1), middle-dose (1 mg·kg^−1), high dose group (5 mg·kg^−1), 10 rats each group, respectively. These rats were anaesthetized with 10% chloral hydrate (250 mg/kg) by intraperitoneal injection. […] The abdominal cavity was reopened after 4 hours, and the ligated segment was opened longitudinally to check for whether there is thrombus.
# T4 sequence (P08709 61-212 limits assumed): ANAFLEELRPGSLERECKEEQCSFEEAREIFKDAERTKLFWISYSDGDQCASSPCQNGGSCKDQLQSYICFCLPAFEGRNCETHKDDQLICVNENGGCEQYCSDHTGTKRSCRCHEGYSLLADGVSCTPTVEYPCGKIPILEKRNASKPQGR
# T4 sequence (P08709 213-466 limits assumed): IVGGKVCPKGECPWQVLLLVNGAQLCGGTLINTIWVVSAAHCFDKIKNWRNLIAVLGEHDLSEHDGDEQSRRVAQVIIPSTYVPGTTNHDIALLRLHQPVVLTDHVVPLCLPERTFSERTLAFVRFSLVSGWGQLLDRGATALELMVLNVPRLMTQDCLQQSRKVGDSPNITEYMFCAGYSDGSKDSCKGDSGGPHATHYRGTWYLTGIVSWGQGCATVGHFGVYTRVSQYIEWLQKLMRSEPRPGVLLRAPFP
# T4 sequence (P13726 33-251 partner limits assumed): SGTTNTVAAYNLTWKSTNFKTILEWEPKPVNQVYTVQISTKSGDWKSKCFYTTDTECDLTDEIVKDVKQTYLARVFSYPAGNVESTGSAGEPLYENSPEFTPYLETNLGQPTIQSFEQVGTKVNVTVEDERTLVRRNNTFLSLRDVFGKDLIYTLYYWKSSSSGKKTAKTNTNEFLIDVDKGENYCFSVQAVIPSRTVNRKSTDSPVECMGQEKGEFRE
# T3 sequence (P00742 41-179 limits assumed): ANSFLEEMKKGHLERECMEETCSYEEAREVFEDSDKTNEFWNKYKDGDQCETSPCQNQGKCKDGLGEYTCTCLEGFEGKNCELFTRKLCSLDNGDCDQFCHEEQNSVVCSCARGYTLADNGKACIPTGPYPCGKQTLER
# T3 sequence (P00742 235-488 limits assumed): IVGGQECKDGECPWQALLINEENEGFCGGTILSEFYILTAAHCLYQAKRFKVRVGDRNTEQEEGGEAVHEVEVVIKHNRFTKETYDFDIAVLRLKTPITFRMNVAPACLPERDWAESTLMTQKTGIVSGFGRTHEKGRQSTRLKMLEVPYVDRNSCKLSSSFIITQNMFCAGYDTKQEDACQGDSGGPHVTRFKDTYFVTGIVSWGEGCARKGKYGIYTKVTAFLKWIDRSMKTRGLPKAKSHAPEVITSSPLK
# T1 sequence (P03951 19-387 limits assumed): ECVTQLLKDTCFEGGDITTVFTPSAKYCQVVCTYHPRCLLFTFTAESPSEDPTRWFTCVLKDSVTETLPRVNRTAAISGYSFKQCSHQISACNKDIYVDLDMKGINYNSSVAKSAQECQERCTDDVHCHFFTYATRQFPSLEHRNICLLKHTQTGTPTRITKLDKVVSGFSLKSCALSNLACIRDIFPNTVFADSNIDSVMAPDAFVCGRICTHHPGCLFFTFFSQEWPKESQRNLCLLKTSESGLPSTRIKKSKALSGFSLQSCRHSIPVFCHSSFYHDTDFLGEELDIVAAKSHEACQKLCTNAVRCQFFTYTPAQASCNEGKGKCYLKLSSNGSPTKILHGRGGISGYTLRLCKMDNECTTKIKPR
# T1 sequence (P03951 388-625 limits assumed): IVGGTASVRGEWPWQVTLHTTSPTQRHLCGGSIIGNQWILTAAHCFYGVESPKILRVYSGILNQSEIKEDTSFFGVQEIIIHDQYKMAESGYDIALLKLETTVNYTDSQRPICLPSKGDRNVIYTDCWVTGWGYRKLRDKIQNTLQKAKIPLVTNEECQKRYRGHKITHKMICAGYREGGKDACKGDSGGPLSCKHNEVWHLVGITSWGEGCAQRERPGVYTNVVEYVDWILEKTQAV
molecule,measurement,setting,value
B1,prolongation of aPTT (in words),normal human plasma [1]; 100 nM and 500 nM,significantly prolong aPTT
same,aPTT,normal human plasma [1]; 100 nM,79.2 ± 3.5 s
same,multiples of prolonging aPTT,normal human plasma [1]; 100 nM,1.98
same,aPTT,normal human plasma [1]; 500 nM,228.3 ± 7.4 s
same,multiples of prolonging aPTT,normal human plasma [1]; 500 nM,5.69
same,prolongation of PT (in words),normal human plasma [2]; 100 nM and 500 nM,couldn't prolong PT
same,PT,normal human plasma [2]; 100 nM,12.4 ± 0.9 s
same,PT,normal human plasma [2]; 500 nM,12.1 ± 0.4 s
same,inhibition of the activity of fXIa,human fXIa; 100 nM,more than 90%
same,inhibition of the activity of fXIa (in words),human fXIa; 200 nM,almost completely inhibited
same,effect on fIIa activity (in words),human fIIa (thrombin); 100 nM,without affecting
same,effect on fIIa activity (in words),human fIIa (thrombin); 200 nM,without affecting
same,effect on fXa activity (in words),human fXa; 100 nM,without affecting; also recorded: no significant inhibitory activity
same,effect on fXa activity (in words),human fXa; 200 nM,without affecting
same,effect on fVIIa/TF activity (in words),fVIIa/TF; 100 nM,without affecting; also recorded: no significant inhibitory activity
same,effect on fVIIa/TF activity (in words),fVIIa/TF; 200 nM,without affecting
same,Bleeding time,BALb/c mice; 100 μg·kg^−1 tail vein,8.34 ± 1.7 min
same,Bleeding time,BALb/c mice; 1 mg·kg^−1 tail vein,8.30 ± 2.1 min
same,Bleeding time,BALb/c mice; 5 mg·kg^−1 tail vein,8.28 ± 2.3 min
same,wet weight of thrombus,SD rats [3]; 100 μg·kg^−1 i.v.,8.5 ± 1.8 mg
same,Inhibition rate %,"SD rats [3]; 100 μg·kg^−1 i.v., vs saline control",80.5%
same,wet weight of thrombus,SD rats [3]; 1 mg·kg^−1 i.v.,1.5 ± 0.3 mg
same,Inhibition rate %,"SD rats [3]; 1 mg·kg^−1 i.v., vs saline control",97%
same,wet weight of thrombus,SD rats [3]; 5 mg·kg^−1 i.v.,0.3 ± 0.2 mg
same,Inhibition rate %,"SD rats [3]; 5 mg·kg^−1 i.v., vs saline control",99%
same,effect on arterio-venous shunt thrombosis (in words),"SD rats [3]; vs saline control, P<0.01",could inhibit rat arterio-venous shunt thrombosis
same,Inhibition rate %,SD rats [4]; 0.1 mg/kg i.v.,80%
same,Thrombosis rate,SD rats [4]; 0.1 mg/kg i.v.,2/10*
same,Inhibition rate %,SD rats [4]; 1.0 mg/kg i.v.,100%
same,Thrombosis rate,SD rats [4]; 1.0 mg/kg i.v.,0/10*
same,Inhibition rate %,SD rats [4]; 5.0 mg/kg i.v.,100%
same,Thrombosis rate,SD rats [4]; 5.0 mg/kg i.v.,0/10*
same,effect on rat venous thrombosis (in words),"SD rats [4]; rat, in vivo",significant antithrombotic effect
